This passage reports self-cleavage results from the RNAGym collection of RNA variant scans (doi:10.7554/elife.80360).

B1: HDV Ribozyme (parent)
chain: GGCCGGCAUGGUCCCAGCCUCCUCGCUGGCGCCGGCUGGGCAACAUUCCGAGGGGACCGUCCCCUCGGUAAUGGCGAAUGGGACCCA

The data set covers variants of B1. The data set can be described thus: self-cleavage, relative activity (ratio to wild type); higher = more cleavage; co-transcriptional.
As to C63G A70C, the self-cleavage amounted to 0.415. Take C63A G76U: the self-cleavage turned out to be 1.15. For C63A G76A the value was 0.875. For C63A G76C the value was 0.976. Under C62U G80A stands 0.348; under C62U G80U, 0.253; under C62U G80C, 0.281. For C63U U79C, the self-cleavage worked out at 0.411. Under C63U U79A stands 0.997; under C63U U79G, 0.54; under C63A U79A, 0.636. For C63A U79C the value was 0.455; for C64A A71C, 0.277. Under C64A A71U stands 0.855; under C62U G67A, 1.12.

For C63A C75A, the self-cleavage was 0.338.

With C63A C75U, the self-cleavage is 0.0906. For C63A A83G the value was 0.712. For C63A C84A the value was 0.96; for C63A C84G, 0.759. Regarding U65C G67A, the self-cleavage worked out at 0.706.

As for U65C G67U, the self-cleavage is 0.627. Under U65C G67C stands 0.984; under C63U A70U, 0.848; under C64U A78G, 0.813. Under C64U A78C stands 0.138; under C64U G68A, 0.821. On to C64U G68C, for which the self-cleavage amounted to 0.305. Turning to C62U G76U, the self-cleavage was 1.06. Under C62U G76A stands 1.12; under C63A C64G, 0.506.

For the variant C63A C64U, the self-cleavage was determined as 0.903. For C64U G73C the value was 0.601; for C64U G73U, 0.345; for C63U C86A, 0.96. For C63U C86U the value was 1.05; for U65C C66G, 1.11. For U65C C66A the value was 1.18; for C63G A77C, 0.58. As to C63G A77G, the self-cleavage was 0.268.

Regarding C63G A77U, the self-cleavage was 0.277. For C64G G67U the value was 0.365. Under C64G G67C stands 0.332; under U65C A77G, 0.831; under U65C A77C, 0.465.

Consider U65A A70G, for which the self-cleavage turned out to be 1.05. For C63U A83U the value was 0.584; for C64G G81U, 0.312. For C64G G81A the value was 0.222; for U65C G80U, 0.106. In the case of U65A G74A, the self-cleavage came out at 0.489. Regarding U65A G74C, the self-cleavage amounted to 0.225.

For the variant C62U C85U, the self-cleavage came to 0.964.

In the case of U65A U72A, the self-cleavage worked out at 0.636. For U65A U72G the value was 0.399; for C64A G67C, 0.277; for C64A G67A, 0.369. With C63A U72A, the self-cleavage worked out at 0.542. Under C63A U72C stands 0.532; under C63A U72G, 0.369; under C63U G80C, 0.218. Under C63U G80U stands 0.224; under C63U G80A, 0.482.

For the variant C62U U65A, the self-cleavage is 1.08. For C64A G82U the value was 0.409. Take C64A G82A: the self-cleavage worked out at 0.282.

Regarding C63G G81C, the self-cleavage turned out to be 0.277. For C63G G81A the value was 0.453; for C63G G81U, 0.375; for C63A A78U, 0.269. As to C63A A78G, the self-cleavage turned out to be 0.404. Under U65A G80U stands 0.279; under U65A G80C, 0.123.

Consider U65A G73A, for which the self-cleavage was found to be 0.342. For U65A G73C the value was 0.415.

Turning to U65C G68A, the self-cleavage amounted to 0.959. For C64G C86G the value was 0.859. Regarding C64G C86U, the self-cleavage was 0.845.

C63A A87C: the self-cleavage was 1. For C63A A87U the value was 1.03. Under C63A A87G stands 0.946. Under U65A A77C stands 0.277; under U65A A77G, 0.643. C63U A87G: the self-cleavage stood at 0.927. For C63U A87C the value was 0.894. Under U65C G81U stands 0.415. For U65C G81A the value was 0.358. For the variant C64A C85U, the self-cleavage turned out to be 0.72. For C64U A87G the value was 1.04.

For C63G A83G, the self-cleavage came to 0.519. Take U65C A70C: the self-cleavage was 1.17. U65C A70U: the self-cleavage worked out at 0.789. Take U65C A70G: the self-cleavage was 0.705. Under U65A A83C stands 0.504; under U65A A83G, 0.859; under C64U U72G, 0.712. For C64U U72C the value was 0.612; for C64U C84U, 0.785; for C64U C84A, 0.801. Under C64U C84G stands 0.869; under U65A G81A, 0.495.

In the case of U65A U69G, the self-cleavage was found to be 0.806. Under U65A U69C stands 0.782; under U65A U69A, 0.929. C64A G80A: the self-cleavage is 0.611. For C64U C86G the value was 0.972; for C64U C86U, 0.772. For C63U G82A the value was 0.534; for C63U G82U, 0.509; for C63U G82C, 0.192.

Take C63A G68A: the self-cleavage is 0.801. Under C63A G68U stands 0.764; under U65C U69G, 1.03. Under U65C U69A stands 0.989. For C64U G74A the value was 0.535.

For C64U G76A, the self-cleavage amounted to 1.01. Under C64U G76U stands 1.15; under C64U G76C, 0.905; under C64U G67U, 0.804. For C64U G67A the value was 0.92; for C64A A83U, 0.511. Under C64A A83C stands 0.332. For the variant U65C G73C, the self-cleavage was 0.283.

With C63A C85A, the self-cleavage stood at 0.618. Under C63A C85U stands 0.911; under C63A U65A, 0.427. Under C63A U65G stands 0.914; under C63A U65C, 0.525; under U65A A71C, 0.767. For U65A A71U the value was 0.76. As for U65A A71G, the self-cleavage amounted to 0.831. Under C63U G76C stands 0.997; under C63U G76A, 0.855; under C64G U79C, 0.623. Consider U65A A87G, for which the self-cleavage turned out to be 0.877. Under U65A A87C stands 1.04; under C63U G68C, 0.941. For C63U G68U the value was 0.8. Under C64A G73C stands 0.256. In the case of U65A C85G, the self-cleavage worked out at 0.604. For C63A G81U the value was 0.244. For C63A G81C the value was 0.188; for C63U C85A, 0.958.

With C63U C85U, the self-cleavage was determined as 1.01.

With U65A G68C, the self-cleavage amounted to 0. Under C64U C66G stands 0.748; under C64A A77C, 0.344.

Turning to C64G G68U, the self-cleavage was found to be 0.136. For C64G G68A the value was 0.338; for U65A C86U, 0.937. Consider U65A C86A, for which the self-cleavage was found to be 1.07. Under U65C A78U stands 0.312. On to C64G G80A, for which the self-cleavage came out at 0.641. For C64G G80U the value was 0.443; for C64G G80C, 0.305; for C64G A71G, 1.11.

Regarding C63U U65A, the self-cleavage is 0.849.

As to C63U U65G, the self-cleavage turned out to be 0.96.

As to U65A C84A, the self-cleavage is 0.769. Under U65A C84G stands 0.494. For C64A U65A the value was 0.895; for C64A U65G, 0.937. For C63G C75A the value was 0.111; for C63G C75G, 0.0489; for C62U G68A, 0.946. On to C63G U65G, for which the self-cleavage is 0.277. Under C63G U65C stands 0.151.
